In PMC4070737:

Target: T1, full-length human EB1 (human), Q15691
T1 chain: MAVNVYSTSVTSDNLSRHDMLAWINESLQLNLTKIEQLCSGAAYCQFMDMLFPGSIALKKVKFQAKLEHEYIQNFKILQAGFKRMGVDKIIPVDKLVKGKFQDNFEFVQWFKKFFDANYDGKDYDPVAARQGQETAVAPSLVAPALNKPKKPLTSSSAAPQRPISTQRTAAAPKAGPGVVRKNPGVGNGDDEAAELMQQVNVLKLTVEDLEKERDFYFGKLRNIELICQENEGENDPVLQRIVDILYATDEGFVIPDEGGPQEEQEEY
Assay: AUC
Details: remark: other sources report otherwise

Kd: 88.5 nM
stoichiometry N: 2
B1: full-length human EB1, Q15691 1-268 (natural protein)
chain: MAVNVYSTSVTSDNLSRHDMLAWINESLQLNLTKIEQLCSGAAYCQFMDMLFPGSIALKKVKFQAKLEHEYIQNFKILQAGFKRMGVDKIIPVDKLVKGKFQDNFEFVQWFKKFFDANYDGKDYDPVAARQGQETAVAPSLVAPALNKPKKPLTSSSAAPQRPISTQRTAAAPKAGPGVVRKNPGVGNGDDEAAELMQQVNVLKLTVEDLEKERDFYFGKLRNIELICQENEGENDPVLQRIVDILYATDEGFVIPDEGGPQEEQEEY
